# Assay results as given in patent publication US20140024076A1 (AstraZeneca / MedImmune, published 2014).
# B1: motavizumab (antibody, V domains shown)
# VH: QVTLRESGPALVKPTQTLTLTCTFSGFSLSTAGMSVGWIRQPPGKALEWLADIWWDDKKHYNPSLKDRLTISKDTSKNQVVLKVTNMDPADTATYYCARDMIFNFYFDVWGQGTTVTVSS
# VL: DIQMTQSPSTLSASVGDRVTITCSASSRVGYMHWYQQKPGKAPKLLIYDTSKLASGVPSRFSGSGSGTEFTLTISSLQPDDFATYYCFQGSGYPFTFGGGTKVEIK
# Biological target: RSV-F protein, full-length, human RSV strain A2 (human respiratory syncytial virus, …, UniProt P03420 26-574)
# Assay: 25 nM Eu3+-labeled antibody on tetracycline-induced 293-derived cells, 44 h post induction; time-resolved fluorescence, R3-47 nonspecific binding subtracted
binder,measurement,value
B1,"fold amount of antibody bound, FGC-WPRE cell line compared to FGC cell line",6.31 fold
